The values below come from publication PMC3817407.

For experiment [1], the target named is T1, ECF16_3622.
T1 chain: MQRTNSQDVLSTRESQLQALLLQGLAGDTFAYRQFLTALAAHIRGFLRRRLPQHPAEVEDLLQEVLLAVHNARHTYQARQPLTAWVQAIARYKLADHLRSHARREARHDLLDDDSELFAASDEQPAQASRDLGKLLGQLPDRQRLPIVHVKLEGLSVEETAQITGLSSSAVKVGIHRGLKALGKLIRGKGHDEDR

For experiment [2], the target named is T2, ECF11_3726.
T2 chain: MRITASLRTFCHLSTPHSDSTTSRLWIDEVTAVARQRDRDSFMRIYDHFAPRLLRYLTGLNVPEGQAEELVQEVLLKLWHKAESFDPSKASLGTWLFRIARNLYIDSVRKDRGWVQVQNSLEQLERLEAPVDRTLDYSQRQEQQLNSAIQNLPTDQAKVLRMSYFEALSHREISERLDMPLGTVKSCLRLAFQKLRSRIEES

The target of experiment [3] is T3, ECF34_1384.
T3 chain: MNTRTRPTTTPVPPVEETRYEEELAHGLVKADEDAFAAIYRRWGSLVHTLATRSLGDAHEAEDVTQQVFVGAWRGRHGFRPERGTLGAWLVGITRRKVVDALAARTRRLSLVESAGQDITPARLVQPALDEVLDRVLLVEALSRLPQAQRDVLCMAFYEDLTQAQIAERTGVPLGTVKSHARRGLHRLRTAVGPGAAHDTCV

For experiment [4], the target named is T4, ECF27_4265.
T4 chain: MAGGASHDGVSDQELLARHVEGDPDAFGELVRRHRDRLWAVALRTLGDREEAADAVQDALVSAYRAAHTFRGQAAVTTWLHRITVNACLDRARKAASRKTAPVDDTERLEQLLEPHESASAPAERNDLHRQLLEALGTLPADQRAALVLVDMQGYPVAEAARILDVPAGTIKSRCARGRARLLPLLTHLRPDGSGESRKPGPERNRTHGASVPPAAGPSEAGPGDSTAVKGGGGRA

The target in experiment [5] is ECF27_1331.
In experiment [6] the target is T5, ECF17_1458.
T5 chain: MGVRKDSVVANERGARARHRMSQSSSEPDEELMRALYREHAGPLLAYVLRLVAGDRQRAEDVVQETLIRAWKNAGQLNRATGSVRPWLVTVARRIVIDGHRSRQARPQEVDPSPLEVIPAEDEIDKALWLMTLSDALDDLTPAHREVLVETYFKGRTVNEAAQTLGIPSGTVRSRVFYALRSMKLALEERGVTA

Experiment [7] concerns the target T6, ECF11_987.
T6 chain: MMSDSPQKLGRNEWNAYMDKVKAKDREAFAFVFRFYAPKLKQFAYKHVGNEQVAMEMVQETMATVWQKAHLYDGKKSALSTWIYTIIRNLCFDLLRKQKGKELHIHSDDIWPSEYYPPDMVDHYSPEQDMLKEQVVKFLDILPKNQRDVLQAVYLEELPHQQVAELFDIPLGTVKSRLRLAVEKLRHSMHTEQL

The target in experiment [8] is T7, ECF22_4450.
T7 chain: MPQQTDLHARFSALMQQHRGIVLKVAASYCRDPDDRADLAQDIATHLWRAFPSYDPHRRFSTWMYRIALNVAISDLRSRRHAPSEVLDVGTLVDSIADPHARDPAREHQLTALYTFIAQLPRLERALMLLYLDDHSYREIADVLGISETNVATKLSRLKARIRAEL

Experiment [9] has as its target T8, ECF17_1691.
T8 chain: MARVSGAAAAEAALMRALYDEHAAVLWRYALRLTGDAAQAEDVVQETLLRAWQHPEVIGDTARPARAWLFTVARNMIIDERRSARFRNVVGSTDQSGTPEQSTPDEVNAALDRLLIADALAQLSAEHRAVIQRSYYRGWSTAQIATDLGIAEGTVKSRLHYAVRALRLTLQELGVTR

Experiment [10] addresses T9, ECF12_807.
T9 chain: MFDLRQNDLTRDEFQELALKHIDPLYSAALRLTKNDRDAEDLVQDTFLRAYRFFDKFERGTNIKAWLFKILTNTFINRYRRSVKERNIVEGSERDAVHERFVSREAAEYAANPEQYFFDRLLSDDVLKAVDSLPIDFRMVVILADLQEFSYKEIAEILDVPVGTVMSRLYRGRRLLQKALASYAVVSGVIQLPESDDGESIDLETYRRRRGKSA

The target of experiment [11] is T10, ECF33_375.
T10 chain: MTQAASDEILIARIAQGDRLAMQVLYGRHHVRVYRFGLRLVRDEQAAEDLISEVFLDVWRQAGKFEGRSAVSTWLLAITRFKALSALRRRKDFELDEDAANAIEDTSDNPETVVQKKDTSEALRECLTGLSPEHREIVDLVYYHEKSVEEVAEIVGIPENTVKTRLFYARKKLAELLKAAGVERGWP

Experiment [12] concerns the target T11, ECF31_34.
T11 chain: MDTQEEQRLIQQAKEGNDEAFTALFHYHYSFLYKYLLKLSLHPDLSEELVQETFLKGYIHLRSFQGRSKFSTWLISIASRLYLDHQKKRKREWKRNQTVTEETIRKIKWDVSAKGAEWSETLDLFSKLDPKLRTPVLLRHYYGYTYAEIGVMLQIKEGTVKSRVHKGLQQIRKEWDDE

Experiment [13] concerns the target T12, ECF14_1324.
T12 chain: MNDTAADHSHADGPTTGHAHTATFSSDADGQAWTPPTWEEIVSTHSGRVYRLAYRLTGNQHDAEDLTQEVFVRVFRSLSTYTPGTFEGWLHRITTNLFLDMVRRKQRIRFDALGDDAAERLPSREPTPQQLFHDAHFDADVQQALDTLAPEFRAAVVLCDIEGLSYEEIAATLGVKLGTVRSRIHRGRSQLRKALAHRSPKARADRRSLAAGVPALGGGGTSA

The target of experiment [14] is T13, ECF16_973.
T13 chain: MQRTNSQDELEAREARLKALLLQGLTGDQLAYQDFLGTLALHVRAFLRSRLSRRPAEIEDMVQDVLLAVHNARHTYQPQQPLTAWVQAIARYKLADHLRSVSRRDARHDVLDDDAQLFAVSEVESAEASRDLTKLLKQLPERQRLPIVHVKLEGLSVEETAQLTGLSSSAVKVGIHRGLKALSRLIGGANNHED

The target of experiment [15] is T14, ECF04_1609.
T14 chain: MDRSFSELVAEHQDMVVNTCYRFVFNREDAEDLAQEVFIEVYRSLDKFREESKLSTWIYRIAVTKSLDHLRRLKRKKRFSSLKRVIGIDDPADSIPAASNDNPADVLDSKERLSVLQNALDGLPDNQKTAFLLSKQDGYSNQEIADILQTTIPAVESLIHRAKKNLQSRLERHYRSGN

B1: AS14_1324 (protein)
chain: MSGSRPEPEGHLAEQHLGDRLSALVDGELGHDARERVLAHVATCPKCKAEVDAQRRLKNVFAEAAPPAPSESFLARLQGLPGGGDSDGGGSPFSGLPGGFGASAASGVFGPRRDERFEFDYVPAGSHTPVLPSATSGRGFRIHEVGRHESDRSASRGLRFAFAAAGAVSLAAIALGGVTLGTPDTTTEARGSGSGSNVTPLRTPGSAAATGSESQRRRTAGPLLGQGQRALGDLPVASTTASAPLLPGMPAPAGGDARQQAVRALTTPVTAGAAAMSPLIRPLEAVPPLSLSSWSAAPEVRPPGLLAAPDPAPSPYPAASPAASSSPLR
For B1, the fold repression was determined as 6.46 in [1]; 11 in [2]; 2.76 in experiment [3]; 2.31 in [4]; 8.27 in [5]; 7.16 in experiment [6]. Moreover, the fold repression in [7] is 6.84; in experiment [8], 8.4; in [9] it was 4.81; in [10], 8.92; in experiment [11] it was 3.42; in experiment [12], 5.28. In addition, the fold repression in experiment [13] was found to be 47.4; in experiment [14] it was 4.45; in experiment [15], 4.65.

B2: AS16_3622 (protein)
chain: MMKTDELISLLATAEGPVDRHALARRLGLALLAGLLGALLLTVALYGVRSDLAEVARTPLFWAKVALPTSLALLGLWLTQRLARPGVRGGALWGLLGVPLLLVWLGAAISLFGAPPEARADLIFGRTWRTCALNITLLSTPVFIAVFWALRGLAPTRLRQAGAAGGLLAGSTATLVYCLHCPEMGVPFWGLWYLLGMLVPTLLGAVLGPRLLRW
Take B2: the fold repression is 254 in experiment [1]; 6.84 in experiment [2]; 2.8 in [3]; 1.45 in experiment [4]; 3.55 in experiment [5]; 4.75 in experiment [6]. The fold repression is 4.23 in [7]; 4.51 in experiment [8]; 2.43 in experiment [9]; 7.12 in experiment [10]; 1.17 in experiment [11]; 2.85 in [12]. The fold repression in experiment [13] came out at 8.8; in experiment [14], 131; in experiment [15], 1.95.

B3: AS15_524 (protein)
chain: MNFGVEDMIEHVPMEDKRKGAAALDEARLRQQAIGVKLRQMFDEVVNEPVPDEFLAILRKAERPAGGE
Take B3: the fold repression in experiment [1] is 7.87; in [2] it was 8.06; in [3], 5.15; in experiment [4], 4.51; in experiment [5] it was 11.5; in experiment [6], 9.33. Further, the fold repression in experiment [7] is 3.74; in [8], 11.1; in [9], 5.16; in [10] it was 5.51; in experiment [11], 4.38; in experiment [12], 6.57. In addition, the results for the fold repression in experiment [13], in [14] and in experiment [15] were 10.5, 4.98 and 6.89, respectively.

B4: AS16_973 (protein)
chain: MKTDDLIALLAAGEGPVPRHAVGRRMAVAALGGLTAALLLTITLYGVRSDITEVAQTPLFWGKVAFPTSLALIGLWLTSRLARPGGKGAAGWKMLGLPLLLVWCGAAVSIAGAPVDARADLLFGRTWRTCALNIALLSVPAFVTVFWALKGLAPTRLRLAGAAGGLLAGSSATVAYCLHCPEMGVPFWGVWYVLGMLVPTVLGAWWGPRMLRW
On to B4, for which the fold repression in experiment [1] came out at 57; in [2], 1.29; in experiment [3], 0.757; in [4] it was 0.412; in experiment [5], 0.929; in [6] it was 1.11. The fold repression was determined as 1.32 in experiment [7]; 2.62 in experiment [8]; 0.852 in experiment [9]; 0.905 in [10]; 0.373 in [11]; 0.696 in [12]. For the same molecule, the fold repression was found to be 0.887 in [13], 58.6 in [14] and 0.632 in [15].

B5: AS15_436 (protein)
chain: MAQSTEPKASPQEATAKGGDNTKGKSRKELQQQIDENLRRVYEEALVQEVPDRFAMLLDQLRQKGTGK
For B5, the fold repression in [1] is 6.45; in [2], 7.87; in [3], 2.2; in [4], 2.89; in [5], 4.82; in experiment [6] it was 5.96. Moreover, the fold repression stood at 2.8 in experiment [7]; 4.63 in [8]; 4.15 in [9]; 5.3 in experiment [10]; 2.28 in [11]; 3.29 in experiment [12]. In addition, the fold repression in experiment [13] was found to be 9; in experiment [14], 3.01; in [15], 5.41.
